How the values were obtained:
[1] = biological target: 19K mutant 123-4 (substitutions for residues 123-124) bait (GAL4(1-147)-19 kD fusion) (yeast; adenovirus) (UniProt P04386); assay: yeast two-hybrid, ONPG beta-galactosidase assay
[2] = biological target: 19K mutant 14-5 bait (GAL4(1-147)-19 kD fusion) (yeast; adenovirus) (UniProt P04386); assay: yeast two-hybrid, ONPG beta-galactosidase assay
[3] = biological target: 19K mutant 146-E bait (GAL4(1-147)-19 kD fusion) (yeast; adenovirus) (UniProt P04386); assay: yeast two-hybrid, ONPG beta-galactosidase assay
[4] = biological target: 19K mutant 29-0 bait (GAL4(1-147)-19 kD fusion) (yeast; adenovirus) (UniProt P04386); assay: yeast two-hybrid, ONPG beta-galactosidase assay
[5] = biological target: 19K mutant 50-1 (amino acids 50-51) bait (GAL4(1-147)-19 kD fusion) (yeast; adenovirus) (UniProt P04386); assay: yeast two-hybrid, ONPG beta-galactosidase assay
[6] = biological target: 19K mutant 75-6 (substitution for residues 75-76) bait (GAL4(1-147)-19 kD fusion) (yeast; adenovirus) (UniProt P04386); assay: yeast two-hybrid, ONPG beta-galactosidase assay
[7] = biological target: 19K mutant 90-6 (amino acids 90-96) bait (GAL4(1-147)-19 kD fusion) (yeast; adenovirus) (UniProt P04386); assay: yeast two-hybrid, ONPG beta-galactosidase assay
[8] = biological target: Bcl-2 deletion mutant #106-5 (lacks residues 106 to 115) bait in pMA424 (yeast; human); assay: yeast two-hybrid, ONPG beta-galactosidase assay
[9] = biological target: Bcl-2 deletion mutant #42-8 (lacks residues 42 to 48) bait in pMA424 (yeast; human); assay: yeast two-hybrid, ONPG beta-galactosidase assay
[10] = biological target: Bcl-2 deletion mutant #80-6 (lacks residues 80 to 86) bait in pMA424 (yeast; human); assay: yeast two-hybrid, ONPG beta-galactosidase assay
[11] = biological target: GAL4(1-147)-19K fusion protein (adenovirus E1B 19 kD protein bait, wild type) (yeast; adenovirus) (UniProt P04386); assay: yeast two-hybrid, ONPG beta-galactosidase assay
[12] = biological target: human Bcl-2 bait (pMA424-based GAL4 DNA-binding domain fusion, residues 1-239 of Bcl2), wild type (yeast; human); assay: yeast two-hybrid, ONPG beta-galactosidase assay
[13] = biological target: GAL4(1-147)-19K fusion protein (adenovirus E1B 19 kD protein bait, wild type) (yeast; adenovirus) (UniProt P04386); assay: yeast two-hybrid, ONPG beta-galactosidase assay, relative to the 19K bait
[14] = biological target: human Bcl-2 bait (pMA424-based GAL4 DNA-binding domain fusion, residues 1-239 of Bcl2), wild type (yeast; human); assay: as above

Nip3 (19K-interacting protein 3), protein coded by cDNA clone 91, tagged with the GAL4 activation domain, sequence (chain): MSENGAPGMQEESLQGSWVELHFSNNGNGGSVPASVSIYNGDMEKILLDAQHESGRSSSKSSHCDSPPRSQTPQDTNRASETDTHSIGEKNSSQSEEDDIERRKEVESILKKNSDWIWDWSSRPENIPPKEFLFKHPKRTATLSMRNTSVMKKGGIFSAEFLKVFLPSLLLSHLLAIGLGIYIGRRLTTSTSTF
Nip1 (19K-interacting protein 1), protein coded by cDNA clone 22, tagged with the GAL4 activation domain, sequence (chain): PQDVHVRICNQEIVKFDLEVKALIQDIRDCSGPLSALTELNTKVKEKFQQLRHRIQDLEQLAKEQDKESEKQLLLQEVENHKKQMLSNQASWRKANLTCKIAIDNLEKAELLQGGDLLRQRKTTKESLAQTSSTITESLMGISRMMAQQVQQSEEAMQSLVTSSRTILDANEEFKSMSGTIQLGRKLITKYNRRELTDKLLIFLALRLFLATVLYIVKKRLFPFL
Nip2 (19K-interacting protein 2), protein coded by cDNA clone 44, tagged with the GAL4 activation domain, sequence (chain): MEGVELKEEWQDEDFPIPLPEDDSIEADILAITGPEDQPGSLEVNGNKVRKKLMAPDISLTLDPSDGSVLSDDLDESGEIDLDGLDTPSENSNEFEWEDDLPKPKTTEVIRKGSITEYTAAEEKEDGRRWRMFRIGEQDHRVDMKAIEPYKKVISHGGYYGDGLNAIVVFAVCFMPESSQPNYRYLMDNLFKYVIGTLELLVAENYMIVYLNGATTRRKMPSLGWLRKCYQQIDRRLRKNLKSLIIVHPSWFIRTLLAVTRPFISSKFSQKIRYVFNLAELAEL

| Substance | relative level of lacZ expression (ONPG) (relative level) [1] | relative level of lacZ expression (ONPG) (relative level) [2] | relative level of lacZ expression (ONPG) (relative level) [3] | relative level of lacZ expression (ONPG) (relative level) [4] | relative level of lacZ expression (ONPG) (relative level) [5] | relative level of lacZ expression (ONPG) (relative level) [6] | relative level of lacZ expression (ONPG) (relative level) [7] | relative level of lacZ expression (ONPG) (relative level) [8] | relative level of lacZ expression (ONPG) (relative level) [9] | relative level of lacZ expression (ONPG) (relative level) [10] | relative level of lacZ expression (ONPG) (relative level) [11] | relative level of lacZ expression (ONPG) (relative level) [12] | relative level of lacZ expression (ONPG) (relative level) [13] | relative level of lacZ expression (ONPG) (relative level) [14] |
| --- | --- | --- | --- | --- | --- | --- | --- | --- | --- | --- | --- | --- | --- | --- |
| Nip1 (19K-interacting protein 1), protein coded by cDNA clone 22, tagged with the GAL4 activation domain | 0.05 | 0.61 | 0.87 | 0.33 | < 0.01 | 1.72 | < 0.01 | 0.01 | 0.16 | 1.21 | 1 | 1 | 1 | 1.8 |
| Nip2 (19K-interacting protein 2), protein coded by cDNA clone 44, tagged with the GAL4 activation domain | 0.24 | 0.55 | 0.98 | 0.32 | 0.09 | 1.6 | 0.04 | 0.06 | 0.09 | 0.8 | 1 | 1 | 1 | 0.7 |
| Nip3 (19K-interacting protein 3), protein coded by cDNA clone 91, tagged with the GAL4 activation domain | 0.1 | 0.16 | 0.28 | 0.19 | 0.01 | 0.22 | 0.01 | 0.11 | 0.19 | 2.87 | 1 | 1 | 1 | 1.5 |
